Laboratory results reported in publication PMC4525287, “Auxiliary KCNE subunits modulate both homotetrameric Kv2.1 and heterotetrameric Kv2.1/Kv6.4 channels” (Scientific Reports, 2015).

Biological target: T1, unlabeled Kv2.1 (human, UniProt Q14721 1-858)
T1 sequence (looked up): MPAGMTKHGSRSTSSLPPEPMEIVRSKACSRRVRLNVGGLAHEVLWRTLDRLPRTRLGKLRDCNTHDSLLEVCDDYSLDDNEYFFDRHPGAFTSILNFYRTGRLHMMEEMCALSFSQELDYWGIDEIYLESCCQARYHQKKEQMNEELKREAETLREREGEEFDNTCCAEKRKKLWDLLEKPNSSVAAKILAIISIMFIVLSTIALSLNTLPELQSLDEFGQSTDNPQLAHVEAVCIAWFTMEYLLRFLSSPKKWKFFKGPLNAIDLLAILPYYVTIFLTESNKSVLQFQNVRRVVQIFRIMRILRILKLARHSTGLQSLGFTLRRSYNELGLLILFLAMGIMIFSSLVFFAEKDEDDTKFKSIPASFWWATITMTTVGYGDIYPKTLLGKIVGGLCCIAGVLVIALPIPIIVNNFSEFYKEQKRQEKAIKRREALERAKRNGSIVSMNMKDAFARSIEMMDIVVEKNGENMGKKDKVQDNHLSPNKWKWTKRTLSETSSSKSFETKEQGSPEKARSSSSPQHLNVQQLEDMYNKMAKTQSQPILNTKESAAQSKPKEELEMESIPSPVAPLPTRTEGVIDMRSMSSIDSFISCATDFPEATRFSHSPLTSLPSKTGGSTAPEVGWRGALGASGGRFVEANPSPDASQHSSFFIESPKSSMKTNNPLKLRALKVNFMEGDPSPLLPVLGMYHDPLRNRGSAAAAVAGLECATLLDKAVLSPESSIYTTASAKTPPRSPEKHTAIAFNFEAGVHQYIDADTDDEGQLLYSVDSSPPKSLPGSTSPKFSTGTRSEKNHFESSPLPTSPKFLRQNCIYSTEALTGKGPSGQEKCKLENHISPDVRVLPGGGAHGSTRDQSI
Experiment: cell-based or functional assay

B1: C-terminally YFP-labeled KCNE5 (natural protein, human, UniProt Q9UJ90 1-142, looked up)
chain: MNCSESQRLRTLLSRLLLELHHRGNASGLGAGPRPSMGMGVVPDPFVGREVTSAKGDDAYLYILLIMIFYACLAGGLILAYTRSRKLVEAKDEPSQACAEHEWAPGGALTADAEAAAGSQAEGRRQLASEGLPALAQGAERV
  fast component of the activation of Kv2.1/Kv6.4 heterotetramers on co-expression of (untagged) KCNE5 with Kv2.1 and Kv6.4 in HEK293 cells, between +20 mV and +70 mV (whole cell current recordings): ~2 fold
